The target of assay [1] is Aβ^40Arc fibrils (pre-formed fibrils of Aβ1–40 Glu22Gly). Nature of the assay: SPR; co-injection: 2 µM Aβ injected for 30 s over immobilised pre-formed fibrils at 20 µl/min in PBS at 25°C, at once followed by 0–400 nM Aβ; the concentration that gives a plateau (critical concentration) is taken as the binding constant.
Assay [2] has as its target Aβ^40WT fibrils (pre-formed fibrils of wild type Aβ1–40) (UniProt P05067). The assay is described as above.

In general, Kd refers to the concentration at which binding is half-saturated. For the substance “Aβ1–40 Glu22Gly (Arctic variant), monomeric (peptide)”, the results for the Kd in assay [1] and in assay [2] were 0.1 µM and 0.05 µM, respectively.

Values taken from publication PMC3182996.
